The experiment deals with SARS-CoV-2 RBD protein (SARS-CoV-2, UniProt P0DTC2). In words: ELISA. The note with it: both partners purified. On the technique in general: An ELISA detects its analyte on a solid surface through an enzyme-linked reagent.

The text below walks through data of paper PMC9871958 (Protein & Cell, 2022).

B1: 1F mutated at R102 (antibody, V domains shown)
VH: EVQLVESGPGLVKPSETLSLTCTVSGGSISSSSYYWGWIRQPPGKGLEWIGSIYYRGSTYYNPSLKSRVTISVDTSKNQFSLKLSSVTAADTAVYYCARHVASAYYYGSGSYRDEGNWFDPWGQGTLVTVSS
VL: QSVLTQPPSVSGAPGQRVTISCTGTRSNIGAGHDVHWYQQLPGTAPKLLIYGNNNRPSGVPDRFSGAKSGTSASLAITGLQAEDEADYYCQSYDRTLTSYVFGTGTKVTVL
notes: also called mutated 1F (R102)
Regarding B1, the binding result is “no binding”.

B2: 1F mutated at D114 (antibody, V domains shown)
VH: EVQLVESGPGLVKPSETLSLTCTVSGGSISSSSYYWGWIRQPPGKGLEWIGSIYYRGSTYYNPSLKSRVTISVDTSKNQFSLKLSSVTAADTAVYYCARHVRSAYYYGSGSYRAEGNWFDPWGQGTLVTVSS
VL: QSVLTQPPSVSGAPGQRVTISCTGTRSNIGAGHDVHWYQQLPGTAPKLLIYGNNNRPSGVPDRFSGAKSGTSASLAITGLQAEDEADYYCQSYDRTLTSYVFGTGTKVTVL
notes: also called mutated 1F (D114)
In the case of B2, the binding result is listed as “no binding”.
